Assays:
[1] = biological target: T1, DC-SIGN (Homo sapiens, UniProt Q9NNX6); conditions: literature; cited from earlier work
T1 sequence (Q9NNX6 1-404): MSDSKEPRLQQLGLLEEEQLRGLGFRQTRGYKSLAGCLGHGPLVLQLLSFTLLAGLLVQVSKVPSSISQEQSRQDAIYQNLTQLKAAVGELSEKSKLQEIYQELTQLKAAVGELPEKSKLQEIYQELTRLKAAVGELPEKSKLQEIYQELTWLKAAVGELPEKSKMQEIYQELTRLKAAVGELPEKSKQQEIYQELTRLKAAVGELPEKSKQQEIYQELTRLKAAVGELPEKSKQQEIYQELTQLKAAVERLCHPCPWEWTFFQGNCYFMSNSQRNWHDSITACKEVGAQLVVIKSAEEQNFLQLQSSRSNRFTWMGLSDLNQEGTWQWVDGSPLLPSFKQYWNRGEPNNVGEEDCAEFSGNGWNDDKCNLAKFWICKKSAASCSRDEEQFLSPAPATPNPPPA

[2] = biological target: T2, DC-SIGN-Fc (Homo sapiens, UniProt Q9NNX6); experiment: DC-SIGN-Fc binding ELISA
T2 construct: the extracellular portion of DC-SIGN (amino acids 64 to 404)
T2 sequence (Q9NNX6 64-404): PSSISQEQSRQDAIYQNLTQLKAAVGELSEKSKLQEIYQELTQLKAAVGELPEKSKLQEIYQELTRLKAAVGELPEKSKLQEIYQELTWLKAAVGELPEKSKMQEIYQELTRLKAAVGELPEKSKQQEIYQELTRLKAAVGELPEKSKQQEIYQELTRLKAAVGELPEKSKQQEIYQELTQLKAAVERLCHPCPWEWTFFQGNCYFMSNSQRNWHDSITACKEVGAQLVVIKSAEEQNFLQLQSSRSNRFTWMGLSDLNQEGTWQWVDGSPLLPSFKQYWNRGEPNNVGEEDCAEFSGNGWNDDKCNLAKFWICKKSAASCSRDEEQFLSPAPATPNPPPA
Procedure: DC-SIGN-Fc binding ELISA. The DC-SIGN-Fc chimera contained the extracellular portion of DC-SIGN (amino acids 64 to 404) fused at the C-terminus to a human immunoglobulin (Ig) G1 Fc fragment and has been previously described (Geijtenbeek et al, 2002). Human milk or human milk compounds were diluted in 0.2M NaHCO3, coated on ELISA plates (maxisorb plate; Nunc) and incubated overnight at 4° C. or 2 hours at 37° C. This was followed by blocking with TSM containing 1% BSA for 30 minutes at 37° C. before addition of soluble DC-SIGN-Fc (5 μg/ml) for 2 hours at RT, the binding was determined by incubation of a peroxidase labeled anti-IgG1 antibody for 30 minutes at RT. DC-SIGN-Fc binding specificity was determined by pre-incubation of the DC-SIGN-FC with either 50 μg/ml DC-SIGN specific mouse antibody AZN-D1 (Geijtenbeek et al, 2000 a) or 10 mM EGTA. Single-cycle-replication transmission assay. The assay was performed as previously described (Groot et al, 2005). In short mDCs and iDCs were incubated in a 96-well-plate (35−50×10^3 DC/well) with human milk for 30 minutes at 37° C. before addition of the virus (5 ng p24/well), which was incubated for 2 hours at 37° C. The DCs were washed twice with PBS before addition of 50×10^3 LuSIV cells. After 24 hours, LuSIV cells were harvested and resuspended in 50 μl lysis buffer (25 mM Tris-Cl 7.8, 2 mM DTT, 2 mM CDTA, 10% glycerol, 1% Triton X100). The cells were then incubated for 45 minutes at room temperature while shaking, followed by 10 minutes centrifugation at 3200×g. The supernatant was transferred to a white-solid 96 well plate (Corning Costar), and 150 μl of lucibuffer (100 μg/ml BSA, 6.6 mM ATP, 15 mM MgSO4, 25 mM glycylglycine) was added. 100 μl of DE(−)Luciferin (Roche Diagnostics GmbH) was injected per well (0.28 mg/ml lucibuffer excluding ATP). 50×10^3 LuSIV cells grown without DC or HIV-1 were used to obtain the background luciferase value.
DC-SIGN-Fc binding ELISA. The DC-SIGN-Fc chimera contained the extracellular portion of DC-SIGN (amino acids 64 to 404) fused at the C-terminus to a human immunoglobulin (Ig) G1 Fc fragment which has been previously described (Geijtenbeek et al, 2002). Human milk or BSSL were diluted in 0.2 M NaHCO3, coated on ELISA plates (maxisorb plate; Nunc) and incubated overnight at 4° C. or 2 hours at 37° C. This was followed by blocking with TSM containing 1% BSA for 30 minutes at 37° C. before addition of soluble DC-SIGN-Fc (5 μg/ml) for 2 hours at RT, the binding was determined by incubation of a peroxidase labeled anti-IgG1 antibody for 30 minutes at RT. DC-SIGN-Fc binding specificity was determined by pre-incubation of the DC-SIGN-Fc with either 50 μg/ml DC-SIGN specific mouse antibody AZN-D1 (Geijtenbeek et al, 2000 a) or 10 mM EGTA.

[3] = system: DC-SIGN mediated transfer of HIV-1 by Raji-DC-SIGN cells to CD4+ T-lymphocytes; experiment: DC-SIGN mediated HIV-1 transfer assay (Raji-DC-SIGN transfer culture assay); type: cell-based; conditions: BSSL isolated from S4, at 30 μg/ml and 1.2 μg/ml; P<0.05
Procedure: DC-SIGN mediated HIV-1 transfer assay. The Raji and Raji-DC-SIGN cells were plated at a concentration of 2×10^4 cells/well in a 96 well format. Dilutions of human milk or human milk compounds were made in PBS containing 10% FCS and spiked with 3.7log TCID50/ml of the appropriate virus before addition to the Raji-DC-SIGN cells. As controls PBS containing 10% FCS was spiked with the same TCID50/ml of the corresponding virus before addition to Raji or Raji-DC-SIGN cells. After incubation the culture was washed with PBS before addition of CD4^+ enriched T-lymphocytes at a concentration of 1×10^5 cells/well with p24 determined on day 7. DC-SIGN specific antibody binding after exposure to human milk. […] The cells were washed and resuspended in 100 μl TSM containing 0.5% bovine serum albumin, (BSA Fraction V, Fatty Acid-Free) (Calbiochem) and the adhesion was measured by flow cytometry (BD Biosciences).
DC-SIGN mediated HIV-1 transfer assay. […] After a two hour incubation the culture was washed with PBS before addition of CD4^+ enriched T-lymphocytes at a concentration of 1×10^5 cells/well with p24 values determined on day 7.

B1: bovine lactoferrin: control protein previously shown to bind DC-SIGN (protein, UniProt P24627 20-708, looked up)
Lactotransferrin: APRKNVRWCTISQPEWFKCRRWQWRMKKLGAPSITCVRRAFALECIRAIAEKKADAVTLDGGMVFEAGRDPYKLRPVAAEIYGTKESPQTHYYAVAVVKKGSNFQLDQLQGRKSCHTGLGRSAGWIIPMGILRPYLSWTESLEPLQGAVAKFFSASCVPCIDRQAYPNLCQLCKGEGENQCACSSREPYFGYSGAFKCLQDGAGDVAFVKETTVFENLPEKADRDQYELLCLNNSRAPVDAFKECHLAQVPSHAVVARSVDGKEDLIWKLLSKAQEKFGKNKSRSFQLFGSPPGQRDLLFKDSALGFLRIPSKVDSALYLGSRYLTTLKNLRETAEEVKARYTRVVWCAVGPEEQKKCQQWSQQSGQNVTCATASTTDDCIVLVLKGEADALNLDGGYIYTAGKCGLVPVLAENRKSSKHSSLDCVLRPTEGYLAVAVVKKANEGLTWNSLKDKKSCHTAVDRTAGWNIPMGLIVNQTGSCAFDEFFSQSCAPGADPKSRLCALCAGDDQGLDKCVPNSKEKYYGYTGAFRCLAEDVGDVAFVKNDTVWENTNGESTADWAKNLNREDFRLLCLDGTRKPVTEAQSCHLAVAPNHAVVSRSDRAAHVKQVLLHQQALFGKNGKNCPDKFCLFKSETKNLLFNDNTECLAKLGGRPTYEEYLGTEYVTAIANLKKCSTSPLLEACAFLTR
**Q.** With B1 as the molecule, how does the “previously shown DC-SIGN binding” value [1] read?
**A.** The value was “bind DC-SIGN and prevent viral transfer”.

B2: BSSL: Bile salt stimulated lipase glycoprotein isolated from human milk (S4) (protein, UniProt P19835 21-753, looked up)
Bile salt-activated lipase: AKLGAVYTEGGFVEGVNKKLGLLGDSVDIFKGIPFAAPTKALENPQPHPGWQGTLKAKNFKKRCLQATITQDSTYGDEDCLYLNIWVPQGRKQVSRDLPVMIWIYGGAFLMGSGHGANFLNNYLYDGEEIATRGNVIVVTFNYRVGPLGFLSTGDANLPGNYGLRDQHMAIAWVKRNIAAFGGDPNNITLFGESAGGASVSLQTLSPYNKGLIRRAISQSGVALSPWVIQKNPLFWAKKVAEKVGCPVGDAARMAQCLKVTDPRALTLAYKVPLAGLEYPMLHYVGFVPVIDGDFIPADPINLYANAADIDYIAGTNNMDGHIFASIDMPAINKGNKKVTEEDFYKLVSEFTITKGLRGAKTTFDVYTESWAQDPSQENKKKTVVDFETDVLFLVPTEIALAQHRANAKSAKTYAYLFSHPSRMPVYPKWVGADHADDIQYVFGKPFATPTGYRPQDRTVSKAMIAYWTNFAKTGDPNMGDSAVPTHWEPYTTENSGYLEITKKMGSSSMKRSLRTNFLRYWTLTYLALPTVTDQEATPVPPTGDSEATPVPPTGDSETAPVPPTGDSGAPPVPPTGDSGAPPVPPTGDSGAPPVPPTGDSGAPPVPPTGDSGAPPVPPTGDSGAPPVPPTGDSGAPPVPPTGDSGAPPVPPTGDAGPPPVPPTGDSGAPPVPPTGDSGAPPVTPTGDSETAPVPPTGDSGAPPVPPTGDSEAAPVPPTDDSKEAQMPAVIRF
**Q.** Which results are given for B2?
**A.** DC-SIGN-Fc binding ([2]; BSSL at 30 μg/ml, 3 μg/ml and 0.3 μg/ml, P<0.01): binding; effect of trypsinization of purified BSSL ([2]; binding not fully alleviated, data not shown): trypsin sensitive; effect of heat treatment of purified BSSL ([2]; data not shown): heat resistant; inhibition of DC-SIGN mediated HIV-1 transfer [3]: significant inhibition
